# In patent US12594347B2, “Nanoparticulate drug delivery systems” (Duke University, priority 2018, dated 2026):
# Several values for one entry are separate records, joined by “and”; a condition that tells them apart may be missing. Identical values can stand only once.
# B1: ABDN-CP-DOX (conjugate)
# chain: LAEAKVLANRELDKYGVSDYYKNLINNAKTVEGVKALIDEILAALPVPGAGVPGAGVPGAGVPGAGVPGAGVPGAGVPGAGVPGAGVPGAGVPGAGVPGAGVPGAGVPGAGVPGAGVPGAGVPGAGVPGAGVPGAGVPGAGVPGAGVPGAGVPGAGVPGAGVPGAGVPGAGVPGAGVPGAGVPGAGVPGAGVPGAGVPGAGVPGAGVPGAGVPGAGVPGAGVPGAGVPGAGVPGAGVPGAGVPGAGVPGAGVPGAGVPGAGVPGAGVPGAGVPGAGVPGAGVPGAGVPGAGVPGAGVPGAGVPGAGVPGAGVPGAGVPGAGVPGAGVPGAGVPGAGVPGAGVPGAGVPGAGVPGAGVPGAGVPGAGVPGAGVPGAGVPGAGVPGAGVPGAGVPGAGVPGAGVPGAGVPGAGVPGAGVPGAGVPGAGVPGAGVPGAGVPGAGVPGAGVPGAGVPGAGVPGAGVPGAGVPGAGVPGAGVPGAGVPGAGVPGAGVPGAGVPGAGVPGAGVPGAGVPGAGVPGAGVPGAGVPGAGVPGAGVPGAGVPGAGVPGAGVPGAGVPGAGVPGAGVPGAGVPGAGVPGAGVPGAGVPGAGVPGAGVPGAGVPGAGVPGAGVPGAGVPGAGVPGAGVPGAGVPGAGVPGAGVPGAGVPGAGVPGAGVPGAGVPGAGVPGAGVPGAGVPGAGVPGAGVPGAGVPGAGVPGAGVPGAGVPGAGVPGAGVPGAGVPGAGVPGAGVPGAGVPGAGVPGAGVPGAGVPGAGVPGAGCGGCGGCGGCGGCGGCGGCGGCGG
# How the values were obtained:
# Canine pharmacokinetics = conditions: dogs
# Description: Canine pharmacokinetics and toxicities. […] All procedures and protocols involving care, handling, and dosing for this study were reviewed and approved by the Institutional Animal Care and Use Committee (IACUC) at North Carolina State University College of Veterinary Medicine, which is an AAALAC-accredited facility. The animals' health status were monitored daily by the animal technicians and veterinary staff, paying particular attention for signs of gastrointestinal toxicities including vomiting, diarrhea, lethargy, and inappetence. If noted, supportive care was provided. […] 2 mL blood samples were drawn from jugular vein at 40 s, 15 and 30 min, 2, 4, 8, 24, 48, and 72 h after injection, diluted into 400 μL heparinized PBS (1000 UmL^−1). Sample processing and analysis were performed as with murine pharmacokinetics studies.
# [1] = Pharmacokinetics of CP-DOX and ABDN-CP-DOX micelles in mice; assay type: in vivo; conditions: Balb/C mice; for Apparent distribution volume VD / Distribution half-life β t1/2 / Elimination rate constant kg / Plasma clearance CL / Plasma to tissue rate constant kpt / Tissue to plasma rate constant ktp / Area under the curve AUC / Elimination half-life α t1/2: tail vein; for Area under the curve AUC / Elimination half-life α t1/2: plasma DOX
# Procedure: The isopropanol extract was then centrifuged (14,000 RPM, 10 min, 4° C.) and 125 uL of the supernatant was loaded onto a black 96-well plate (BD Biosciences) in duplicate.
# [2] = target: mouse serum albumin (MSA) (Mus musculus, UniProt P07724); assay: Isothermal titration calorimetry (VP-ITC) of polypeptide carriers and DOX micelles with mouse albumin; assay type: binding; conditions: PBS pH 7.4, 37° C.
# Chain of mouse serum albumin (MSA) (P07724 25-608): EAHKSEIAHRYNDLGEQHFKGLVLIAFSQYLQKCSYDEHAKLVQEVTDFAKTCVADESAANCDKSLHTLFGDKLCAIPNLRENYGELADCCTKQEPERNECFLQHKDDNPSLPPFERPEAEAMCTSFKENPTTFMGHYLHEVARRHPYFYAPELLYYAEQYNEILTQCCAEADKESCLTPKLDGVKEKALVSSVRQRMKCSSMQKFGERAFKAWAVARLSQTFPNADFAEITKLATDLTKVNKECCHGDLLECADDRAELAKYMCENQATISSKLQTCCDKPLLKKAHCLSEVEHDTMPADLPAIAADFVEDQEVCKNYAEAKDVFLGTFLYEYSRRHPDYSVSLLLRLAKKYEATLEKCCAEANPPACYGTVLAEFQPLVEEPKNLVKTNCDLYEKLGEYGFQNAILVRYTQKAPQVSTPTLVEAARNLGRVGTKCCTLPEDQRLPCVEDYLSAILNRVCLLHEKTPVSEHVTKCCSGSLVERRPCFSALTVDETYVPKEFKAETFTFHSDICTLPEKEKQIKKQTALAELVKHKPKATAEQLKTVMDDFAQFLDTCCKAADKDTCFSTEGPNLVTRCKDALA
# Procedure: Interaction with albumin. Interaction of CP monomers and micelles with human and mouse albumin was analyzed by isothermal titration calorimetry (ITC).
# [3] = Thermal turbidimetry (transition temperature); assay type: physicochemical; conditions: PBS (FIG. 8D)
# Procedure: Thermal Turbidimetry. Thermal profiles of CPs and CP conjugates were determined by measuring the transition temperature (Tt) over a range of concentrations (5, 10, 25, 50, and 100 uM) in PBS, FBS, and MS using a Cary UV-visible spectrophotometer equipped with temperature controller (Agilent Technologies, CA, USA). […] The transition temperature was defined as the maximum first derivative of the optical density.
# [4] = Dynamic and static light scattering; assay type: physicochemical; conditions: for Rh / Nagg / Rg: PBS; for Nagg / Rg: SLS
# Procedure: Light Scattering. Dynamic and static light scattering measurements were performed using an ALV/CGS-3 goniometer system (Germany). […] To study the effect of albumin binding on micellar self-assembly, mouse albumin was added to the samples at 1:1 albumin-CP molar ratio in PBS. Measurements were obtained at 25° C. and 37° C. for angles between 30-150° at 5° increments with each angle consisting of 3 runs and 10 s each at each run. Hydrodynamic radius (Rh) was determined by dynamic light scattering. The radius of gyration (Rg) and the average molecular weight of the particle (MW) were calculated from the slope and intercept of a partial Zimm plot, respectively, using ALV/Dynamic and Static FIT and PLOT software and according. The micelle aggregation number Nagg, or the number of polypeptide chains per nanoparticle, was calculated by dividing the micelle molecular weight by the molecular weight of the polypeptide monomer.
# Size and morphology of CP conjugated micelles. The radius and the aggregation number of the self-assembled micelles were determined, in the presence and absence of albumin, by dynamic and static light scattering at 37° C. using an ALV/CGS-3 goniometer system (Germany). Freeze fracture electron microscopy was performed to visualize the micelles and estimate their radius and morphology.
# [5] = Canine hematology one week after administration; assay type: in vivo, dogs (beagles and hounds); conditions: dogs
# Description: Canine pharmacokinetics and toxicities. […] If noted, supportive care was provided.
# [6] = Biodistribution in C26 tumor-bearing mice; assay type: in vivo, Balb/C mice; conditions: 2 h and 24 h time points
# Procedure: Cell culture and tumor inoculation.
# Biodistribution. […] At 2 and 24 h after injection, tissues (tumor, muscle, heart, lung, liver, spleen and kidney) were removed, weighed and suspended in 1.0 mL acidified isopropanol (75 mM HCl, 10% water, 90% isopropanol). Tissues were then homogenized using 2 mm diameter zirconia beads and a MiniBeadbeater-1TM (Biospec; Bartlesville, OK) for 2 min at 5,000 beats per minute and were incubated overnight at 4° C. in the dark. The isopropanol extracts were then vortexed, and centrifuged (14,000 RPM, 10 min, 4° C.) and 125 uL of the supernatant was loaded onto a black 96-well plate (BD Biosciences) in duplicate. […] To correct for background tissue fluorescence, tissues were removed from three untreated control mice and were processed similarly. For each tissue, a background (counts per mg tissue) curve was created using 2-fold dilutions of the processed tissues in acidified isopropanol.
# [7] = cephalic vein, 27 DOX Equiv/m^−2 BSA or 0.9 mg DOX Equiv/kg BW
# [8] = printed 'at the dose of 10 mg/kg BW DOX equivalent' (first statement of b160)
# [9] = one week after administration, individual subjects
molecule,measurement,setting,value
B1,"AUC, fold larger than that of CP-DOX",Canine pharmacokinetics,six-fold
same,"plasma half-life, fold greater than that of CP-DOX",Canine pharmacokinetics,three-fold
same,Apparent distribution volume VD,Canine pharmacokinetics; [7],0.02 ± 0.00 mL/g
same,Distribution half-life β t1/2,Canine pharmacokinetics; [7],1.705 ± 0.822 h
same,Elimination rate constant kg,Canine pharmacokinetics; [7],0.02 ± 0.00 h⁻¹
same,Plasma clearance CL,Canine pharmacokinetics; [7],0.0003 ± 0.0000 mL/h/g
same,Plasma to tissue rate constant kpt,Canine pharmacokinetics; [7],0.06 ± 0.03 h⁻¹
same,Tissue to plasma rate constant ktp,Canine pharmacokinetics; [7],0.34 ± 0.17 h⁻¹
same,Elimination half-life α t1/2,"Canine pharmacokinetics; cephalic vein, 27 DOX Equiv/m^−2 BSA or 0.9 mg DOX Equiv/kg BW, plasma DOX",30.8 ± 2.0 h
same,Apparent distribution volume VD,[1]; 10 mg/kg BW DOX equivalent,0.34 ± 0.01 mL/g
same,Distribution half-life β t1/2,[1]; 10 mg/kg BW DOX equivalent,0.207 ± 0.0233 h
same,Elimination rate constant kg,[1]; 10 mg/kg BW DOX equivalent,0.10 ± 0.01 h⁻¹
same,Plasma clearance CL,[1]; 10 mg/kg BW DOX equivalent,0.013 ± 0.000 mL/h/g
same,Plasma to tissue rate constant kpt,[1]; 10 mg/kg BW DOX equivalent,2.08 ± 0.27 h⁻¹
same,Tissue to plasma rate constant ktp,[1]; 10 mg/kg BW DOX equivalent,1.22 ± 0.13 h⁻¹
same,Area under the curve AUC,[1]; 10 mg/kg BW DOX equivalent,1400.4 ± 34.2 µM·h
same,Elimination half-life α t1/2,[1]; 10 mg/kg BW DOX equivalent,18.3 ± 0.6 h
same,Apparent distribution volume VD,[1]; 20 mg/kg BW DOX equivalent,0.25 ± 0.11 mL/g
same,Distribution half-life β t1/2,[1]; 20 mg/kg BW DOX equivalent,1.2 ± 0.292 h
same,Elimination rate constant kg,[1]; 20 mg/kg BW DOX equivalent,0.08 ± 0.00 h⁻¹
same,Plasma clearance CL,[1]; 20 mg/kg BW DOX equivalent,0.011 ± 0.000 mL/h/g
same,Plasma to tissue rate constant kpt,[1]; 20 mg/kg BW DOX equivalent,0.25 ± 0.07 h⁻¹
same,Tissue to plasma rate constant ktp,[1]; 20 mg/kg BW DOX equivalent,0.29 ± 0.07 h⁻¹
same,Area under the curve AUC,[1]; 20 mg/kg BW DOX equivalent,3328.5 ± 100.3 µM·h
same,Elimination half-life α t1/2,[1]; 20 mg/kg BW DOX equivalent,17.5 ± 0.8 h
same,linearity of pharmacokinetics (in words),[1]; 10 vs 20 mg/kg BW DOX equivalent,linear pharmacokinetics
same,bioavailability i.e. AUC,[1]; [8],3328.5 ± 100.3 µM·h
same,half-life,[1]; [8],17.5 ± 0.8 h
same,binding stoichiometry N,[2],1.01±0.00
same,transition temperature after drug (DOX) conjugation,[3],44 °C
same,ρ = Rg/Rh,[4]; 22 ° C.,0.62
same,Rh,"[4]; 22 ° C., DLS",59.0 nm and 59.00 nm
same,Nagg,[4]; 22 ° C.,34.97
same,Rg,[4]; 22 ° C.,36.95 nm
same,ρ = Rg/Rh,[4]; 37 ° C.,0.766
same,Rh,"[4]; 37 ° C., DLS",45.63 nm
same,Nagg,[4]; 37 ° C.,42.04
same,Rg,[4]; 37 ° C.,34.97 nm
same,nanoparticle formation (in words),[4]; DLS,form nanoparticles
same,aggregation (in words),[4]; body temperature (37° C.),remain aggregate-free
same,aggregation (in words),[4]; room temperature (25° C.),Neither ABDN-CP-DOX nor ABDH-CP-DOX conjugates aggregate
same,Abonormal Lymphs,[5]; [9],0.157 10^3/μL and 0.561 10^3/μL
same,Hematocrit,[5]; [9],42.7% and 43.9%
same,Hemoglobin,[5]; [9],14.7 g/dL and 14.6 g/dL
same,Lymphocytes,[5]; [9],1.572 10^3/μL and 1.122 10^3/μL
same,MCH,[5]; [9],24.6 pg and 23.6 pg
same,MCHC,[5]; [9],34.3 g/dL and 33.2 g/dL
same,MCV,[5]; [9],71.7 fL and 71 fL
same,MPV,[5]; [9],12.2 fL and 11.9 fL
same,Monocytes,[5]; [9],0.314 10^3/μL and 0.21 10^3/μL
same,PCT,[5]; [9],0.28% and 0.25%
same,Packed Cell-Volume,[5]; [9],42%
same,Plasma Protein,[5]; [9],6.2 g/dL and 5.8 g/dL
same,Platelets,[5]; [9],228 X10^3/μL and 208 X10^3/μL
same,RBC,[5]; [9],5.97 X10^6/μL and 6.19 X10^6/μL
same,RDW,[5]; [9],12.8% and 11.7%
same,Reticulocyte #,[5]; [9],0.025 X10^6/μL and 0.014 X10^6/μL
same,Reticulocyte %,[5]; [9],0.43% and 0.23%
same,Reticulocyte Absolute,[5]; [9],25000 µL⁻¹ and 14000 µL⁻¹
same,Segmented Neutrophils,[5]; [9],5.502 10^3/μL and 4.276 10^3/μL
same,WBC,[5]; [9],7.86 X10^3/μL and 7.01 X10^3/μL
same,abnormalities in blood hematology (in words),[5]; one week after infusion,no hematology or serum chemistry abnormalities
same,distribution to organs of the reticuloendothelial system i.e. liver and spleen (in words),[6],significantly smaller than that of CP-DOX micelles
